In the test the target is CD24 (human) (UniProt P25063). The test is described as follows: cell-based or functional assay.

One substance from US20250263500A1 can be followed below.

Sequence of CD24 (human) (P25063 27-59): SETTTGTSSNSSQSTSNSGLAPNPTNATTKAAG

negative control antibody (mouse IgG) displayed a Phagocytosis rate % (A549 tumor cells by human PBMC-derived M2 macrophages, antibody 5 µg/ml) of 2.7% and a Phagocytosis rate (%) (MCF-7 tumor cells by human PBMC-derived M2 macrophages, antibody 5 µg/ml) of 1.3%.
